In experiment [1] the target is T1, recombinant human DLL3 protein (human, UniProt Q9NYJ7 27-492, limits assumed).
T1 construct: also called rhu DLL3; human biotinylated DLL3
T1 sequence (looked up): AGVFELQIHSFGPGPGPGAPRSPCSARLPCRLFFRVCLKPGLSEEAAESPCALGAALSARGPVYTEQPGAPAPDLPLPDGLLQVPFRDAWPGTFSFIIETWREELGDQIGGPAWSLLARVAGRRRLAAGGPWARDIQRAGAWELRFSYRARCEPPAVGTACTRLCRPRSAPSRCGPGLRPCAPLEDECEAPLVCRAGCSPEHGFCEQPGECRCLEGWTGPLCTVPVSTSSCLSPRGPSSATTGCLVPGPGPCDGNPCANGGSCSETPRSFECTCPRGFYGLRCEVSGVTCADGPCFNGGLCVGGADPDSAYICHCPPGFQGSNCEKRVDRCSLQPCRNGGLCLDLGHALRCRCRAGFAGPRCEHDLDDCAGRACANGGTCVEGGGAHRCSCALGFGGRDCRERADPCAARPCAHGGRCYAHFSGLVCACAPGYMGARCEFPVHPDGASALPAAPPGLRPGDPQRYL
The experiment can be described thus: SPR, control: individual binding construct. As to the method:
Surface Plasmon Resonance (SPR) was used to assess the binding kinetics and binding affinity. Kinetic rate coefficients were recovered from binding analysis experiments performed with a Biacore 3000 biosensor. Concentrations of the anti-DLL3/anti-CD3/anti-HSA trispecific binding construct ranging from 1.23 nM to 300 nM were run against the SPR sensorgram surfaces immobilized with recombinant human CD3 (rhu CD3) or recombinant HSA (rHSA). Concentrations of recombinant human DLL3 (rhu DLL3) ranging from 1.23 nM to 100 nM were run against the SPR sensorgram surface immobilized with the anti-DLL3/anti-CD3/anti-HSA trispecific binding construct. The association and dissociation phase data were globally fit to a 1:1 model to determine the association rate coefficient (kₒₙ), dissociation rate coefficient (koff), the Rmax value, and the dissociation constant (KD). Results were reported as the global fits to 1:1 model±standard error. The control groups were the three corresponding individual binding constructs. All three antigen binding domains in the trispecific binding construct retain binding to the corresponding antigen.
A general note: SPR reads the build-up and loss of mass on a sensor chip optically.

Experiment [2] addresses T2, mouse DLL3 protein (mouse, UniProt O88516 33-490, limits assumed).
T2 construct: also called murine DLL3
T2 sequence (looked up): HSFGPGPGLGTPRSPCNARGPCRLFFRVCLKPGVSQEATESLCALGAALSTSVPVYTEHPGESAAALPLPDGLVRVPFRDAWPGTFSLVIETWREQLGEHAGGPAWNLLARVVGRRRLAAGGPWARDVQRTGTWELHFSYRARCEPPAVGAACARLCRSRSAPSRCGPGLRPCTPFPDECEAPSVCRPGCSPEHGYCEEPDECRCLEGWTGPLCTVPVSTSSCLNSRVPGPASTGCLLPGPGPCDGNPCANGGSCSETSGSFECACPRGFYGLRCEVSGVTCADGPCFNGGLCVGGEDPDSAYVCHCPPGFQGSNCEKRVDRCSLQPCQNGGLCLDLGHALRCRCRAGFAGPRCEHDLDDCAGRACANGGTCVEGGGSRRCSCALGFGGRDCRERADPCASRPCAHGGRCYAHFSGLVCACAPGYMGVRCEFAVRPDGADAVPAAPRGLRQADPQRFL
The experiment can be described thus: Octet (DLL3 on AR2G tips), ELISA and FACS; values only in FIG. 3.

The target in experiment [3] is T3, DLL3 target antigen coated on Octet SA tips (binning experiment) (Homo sapiens (Human), UniProt Q9NYJ7 27-492, Probably biotinylated for capture on streptavidin (SA) tips. The site is not stated.).
T3 sequence: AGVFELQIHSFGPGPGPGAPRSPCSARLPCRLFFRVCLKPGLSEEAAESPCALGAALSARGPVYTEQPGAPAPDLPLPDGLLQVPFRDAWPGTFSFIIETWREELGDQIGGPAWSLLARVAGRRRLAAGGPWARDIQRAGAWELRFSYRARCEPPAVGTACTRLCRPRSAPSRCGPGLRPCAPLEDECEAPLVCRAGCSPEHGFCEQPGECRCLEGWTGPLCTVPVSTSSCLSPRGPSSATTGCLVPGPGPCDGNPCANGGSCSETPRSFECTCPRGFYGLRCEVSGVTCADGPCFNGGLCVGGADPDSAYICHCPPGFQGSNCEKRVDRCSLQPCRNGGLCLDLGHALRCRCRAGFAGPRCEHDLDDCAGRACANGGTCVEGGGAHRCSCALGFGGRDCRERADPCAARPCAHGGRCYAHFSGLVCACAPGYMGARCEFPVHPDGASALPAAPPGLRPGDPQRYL
The experiment can be described thus: Octet binning on DLL3-coated SA tips; competitor: 3HCE4. The method, then:
(§1) Antibody binning experiments were carried out for 5 anti-DLL3 VHHs and an anti-human DLL3 BiTE (SEQ ID NO: 756). The target antigen was coated on a series of Octet SA tips. Each series of tips was first soaked in a periplasmic extract containing one specific VHH. After the response signals reached saturation, the tips were transferred to a mix of PEs containing again the first VHH (at the same concentration) plus a different VHH (termed secondary VHH) for each tip of the series. Secondary VHH that still bind the target antigen in the presence of the first VHH will show an increased response, as compared to the binding response of the first VHH alone. This was repeated for each VHH as primary VHH until all VHH were tested against each other in both directions (as primary and as secondary binder). From the response data, the bins were deduced for each VHH. 2HCE117 and 3HCE4 show competition with the human DLL3 BiTEs, whereas 3HCE56 and 3HCE87 show a partial competition.
For orientation: In BLI a coated tip is dipped into the sample, and binding shifts an interference pattern.

The target in experiment [4] is T3, DLL3 target antigen coated on Octet SA …. The experiment can be described thus: Octet binning on DLL3-coated SA tips; competitor: 2HCE27. As to the method: as §1
For experiment [5], the target named is T1, recombinant human DLL3 protein. The experiment can be described thus: Fortebio Octet Red, DLL3 immobilised on tips, dilution series of the VHH, 1:1 binding model; koff error 6.05E-07; Full R2 0.9994. The method, then:
Additional experiments were carried out to further characterize the binding properties of the anti-DLL3 constructs. Binding properties tested include dissociation constant (KD), off-rate (koff), binding to DLL3 protein by ELISA and binding to CHO cells expressing human, cyno or mouse DLL3. To obtain off-rate (koff), human biotinylated DLL3 was immobilized on Octet SA tips, and cynomolgus or mouse DLL3 was immobilized on Octet AR2G tips. For each DLL3 protein, the binding to a dilution series of each anti-DLL3 construct was measured using Fortebio Octet Red. The dissociation constant (KD), off-rate (koff) and other kinetic parameters for each anti-DLL3 construct were calculated using a 1:1 binding model. In addition, binding of these anti-DLL3 constructs to CHO cells expressing human, cyno or mouse DLL3 protein was analyzed using flow cytometry (FACS).

One may read the Kd as a measure of binding affinity in units of concentration. By koff is commonly meant a measure of how fast the partners let go of each other. Usually kon stands for the rate constant with which the complex forms.

B1: 2HCE27 anti-DLL3 VHH (VHH)
VHH: QVQLQESGGGLVQAGGSLRLSCAASGRTFRSYAMGWFRQAPGKEREFIAVIIMSDGSTSYADSVKGRFTISRDNAKNTLYLQMNSLKPEDTAVYYCAARRDYFTGVYDYWGQGTQVTVSS
notes: In the binning assay it was used as a periplasmic extract; also called anti-DLL3 (2HCE27)
With B1, the Kd in experiment [1] turned out to be 7.89 nM. Further, the koff in experiment [1] worked out at 0.00064 s⁻¹; in experiment [5] it was 0.000638 s⁻¹. The kon in experiment [1] amounted to 80000 M⁻¹ s⁻¹. In addition, in experiment [2], the binding result is reported as “binds”. Further, the “binning response (unit not given)” value in experiment [3] came out at 53.4; in experiment [4] it was 0.

Source of the values: patent US20230227577A1 (MYTHIC THERAPEUTICS, published 2023).
